Key:
[1] = target: T1, Recombinant human ActRIIB-Fc (human, UniProt Q13705 19-137); experiment: SPR
T1 chain: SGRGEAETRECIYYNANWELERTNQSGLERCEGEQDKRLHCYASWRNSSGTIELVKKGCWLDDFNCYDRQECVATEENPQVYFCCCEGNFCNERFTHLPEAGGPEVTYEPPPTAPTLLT

[2] = target: Recombinant human ActRIIA-Fc (human, UniProt P27037 20-135); experiment: SPR
Chain of Recombinant human ActRIIA-Fc (P27037 20-135): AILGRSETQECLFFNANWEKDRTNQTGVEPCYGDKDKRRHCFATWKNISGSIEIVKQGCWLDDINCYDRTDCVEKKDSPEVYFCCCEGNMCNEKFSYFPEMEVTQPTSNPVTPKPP

- Kd [1]: 20 nM
- Kd [2]: 5 nM
B1: Recombinant human ActE (bacterially derived, provided by R&D Systems) (ligand)
chain: TPTCEPATPLCCRRDHYVDFQELGWRDWILQPEGYQLNYCSGQCPPHLAGSPGIAASFHSAVFSLLKANNPWPASTSCCVPTARRPLSLLYLDHNGNVVKTDVPDMVVEACGCS

From publication PMC11088876 (2024)
